Measured values as given in PMC11135836.

What follows are sequences tested on T1, RstA (Escherichia coli LF82 (adherent-invasive)?), ORF:9fe818c8 (assay: EMSA). Details: EMSA: 40 ng PCR fragment, 0-2 uM RstA, 20 uL; 1 mM Tris-HCl pH 7.5, 0.2 mM DTT, 5 mM MgCl2, 10 mM KCl, 10% glycerol, 30 mM acetyl phosphate; 25 C 30 min ….
T1 sequence: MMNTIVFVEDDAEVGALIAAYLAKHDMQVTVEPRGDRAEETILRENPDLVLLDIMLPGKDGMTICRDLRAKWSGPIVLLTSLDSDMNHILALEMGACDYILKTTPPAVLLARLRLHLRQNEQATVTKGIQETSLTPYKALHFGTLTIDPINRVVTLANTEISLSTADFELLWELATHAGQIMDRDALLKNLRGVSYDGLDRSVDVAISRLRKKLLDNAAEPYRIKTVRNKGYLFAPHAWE

Question: For “CAAGCAAAAGCCTGGTTCCGCCGATTTATCGCTGCGGCAAATAACGCAGCGGGTTTACGGATTTCCCCTTGTAACGAATTTCAAAATGCAAGCGTGTTGAACTGGTTCCGGTGCTACCCATGGTTGCTATTTTTTGCCCCGCCTTCACTTCTTGTTGTTCCCGGACCAGCATTGTGTCGTTATGGGCGTAGG (double strand) [rpoS promoter (negative control)]”, which binding is on record?
Answer: no binding

Question: Which binding does the source give for “ATGACGAAAGGACTACAGCGAAATATTTTTTATATGCATTATTAGTAAGTTAGCACCATTTGTATGATTTTTTAAAATTGTGCAATAAAAACCAAATGTACAACTTTTCTATCATTTATAAACTTAATAAAACCTTAAGGTTAACATTTTAATATAACGAGTTGCATTTAGTTACATGTTTAACACTTGATTTAAGATTTGTAATGGCTAGATTGAAATCAGATGTAATCCATTAGTTTTATATTTTACCCATTTAGGGCTGATTTATTACTACACACA (double strand) [csgD promoter]” here?
Answer: binds

Question: How did the binding turn out when “TGCGCAGTTATTCTACCGCTTTGTAAGTAGTAAAATAGTTAACACGATCAAGACTACTATTATTGGTAGCTAAATTTTCCTTAAGTCACAATACGTTATTATCAATGCTGTAATTTATTCAGCGTTTGTACATATCGTTACACGCTGAAACCAACCACTCACGGAAGTCTGCCATTCC (double strand) [asr promoter]” was run?
Answer: binds
